Consider 25 sequences from the Immune Epitope Database (IEDB).

One experiment deals with HLA-A*24:03. In words: IEDB peptide-MHC binding, purified MHC/direct/fluorescence; filed as Kd, often an IC50 or EC50 that approximates it; ≥ and ≤ were set here for values at or beyond the usual limits of such assays.
Experiment [1] addresses HLA-A*26:01. In words: IEDB peptide-MHC binding, purified MHC/competitive/fluorescence; filed as Kd, often an IC50 or EC50 that approximates it; ≥ and ≤ were set here for values at or beyond the usual limits of such assays.
The next experiment deals with HLA-B*18:01. In words: IEDB peptide-MHC binding, purified MHC/direct/fluorescence; filed as Kd, often an IC50 or EC50 that approximates it; ≥ and ≤ were set here for values at or beyond the usual limits of such assays.
For a further experiment, the target named is HLA-B*44:02. The description is as above.
The target of experiment [2] is HLA-A*31:01. The description is as above.
The target of experiment [3] is HLA-B*40:01. The experiment is described as above.
For a further experiment, the target named is HLA-B*08:01. The description is as above.
Experiment [4] deals with HLA-A*11:01. The description is as above.
The target in experiment [5] is HLA-A*03:01. The experiment is described as above.
Experiment [6] concerns the target HLA-B*07:02. Described as above.
The next experiment addresses HLA-B*27:05. Described as above.
Experiment [7] has as its target HLA-A*26:01. The description is as above.
The target of a further experiment is HLA-B*58:01. The description is as above.
In experiment [8] the target is HLA-B*15:01. Described as above.
In a further experiment the target is HLA-A*69:01. The description is as above.
A further experiment concerns the target HLA-A*02:01. The experiment is described as above.
Experiment [9] concerns the target HLA-B*40:01. In words: IEDB peptide-MHC binding, purified MHC/competitive/radioactivity; filed as Kd, often an IC50 or EC50 that approximates it; ≥ and ≤ were set here for values at or beyond the usual limits of such assays.
The next experiment has as its target HLA-B*44:03. The description is as above.
Experiment [10] addresses HLA-A*03:01. In words: IEDB peptide-MHC binding, purified MHC/competitive/fluorescence; filed as Kd, often an IC50 or EC50 that approximates it; ≥ and ≤ were set here for values at or beyond the usual limits of such assays.
The target in the next experiment is HLA-A*29:02. In words: IEDB peptide-MHC binding, purified MHC/competitive/radioactivity; filed as Kd, often an IC50 or EC50 that approximates it; ≥ and ≤ were set here for values at or beyond the usual limits of such assays. To be noted: source organism: Mammarenavirus tacaribeense.
The next experiment addresses HLA-A*23:01. The description is as above. To be noted: source organism: Mammarenavirus tacaribeense.
The next experiment has as its target HLA-A*24:02. The experiment is described as above. To be noted: source organism: Mammarenavirus tacaribeense.
For a further experiment, the target named is HLA-A*01:01. In words: IEDB peptide-MHC binding, purified MHC/direct/fluorescence; filed as Kd, often an IC50 or EC50 that approximates it; ≥ and ≤ were set here for values at or beyond the usual limits of such assays.
Experiment [11] deals with HLA-B*15:01. In words: IEDB peptide-MHC binding, purified MHC/competitive/radioactivity; filed as Kd, often an IC50 or EC50 that approximates it; ≥ and ≤ were set here for values at or beyond the usual limits of such assays. The following applies: source organism: Dengue virus 1 Brazil/97-11/1997.
In a further experiment the target is HLA-A*68:01. The experiment is described as above. The following applies: source organism: Vaccinia virus WR.
Experiment [12] addresses HLA-A*31:01. The description is as above. The following applies: source organism: Vaccinia virus WR.
A further experiment concerns the target HLA-B*54:01. Described as above. The following applies: source organism: Vaccinia virus WR.
The next experiment concerns the target HLA-B*51:01. The description is as above. The following applies: source organism: Vaccinia virus WR.
Another experiment has as its target HLA-B*35:01. The description is as above. The following applies: source organism: Vaccinia virus WR.
The target of experiment [13] is HLA-A*11:01. The experiment is described as above. To be noted: source organism: Vaccinia virus WR.
In experiment [14] the target is HLA-A*03:01. The description is as above. The following applies: source organism: Vaccinia virus WR.
The target of experiment [15] is HLA-B*07:02. The experiment is described as above. The following applies: source organism: Vaccinia virus WR.
In another experiment the target is HLA-A*33:01. The experiment is described as above. The following applies: source organism: Vaccinia virus WR.
The target of a further experiment is HLA-B*53:01. The experiment is described as above. To be noted: source organism: Vaccinia virus WR.
The mark [16] stands for this setting: source organism: Mammarenavirus lassaense.
[17] abbreviates: source organism: dengue virus type 2.
[18] abbreviates: source organism: Aggregatibacter actinomycetemcomitans.
[19] abbreviates: source organism: Dengue virus 3 Martinique/1243/1999.
Setting [20] is: source organism: Influenza A virus (A/SW/MN/3227/00(H1N2)).
[21] abbreviates: source organism: Bacillus anthracis.
[22] abbreviates: source organism: Vibrio parahaemolyticus.
Where [23] appears, read: source organism: Salmonella enterica.
The mark [24] stands for this setting: source organism: Dengue virus 2 Jamaica/1409/1983.
Setting [25] is: source organism: Dengue virus 1 Brazil/97-11/1997.

In turn, AWENTVVDL displayed a Kd with HLA-A*24:03 (setting [16]) of 1.5 µM.

As for DVSEQLELI, the Kd with HLA-A*26:01 [1] (source organism: Escherichia coli) was no less than 20 µM.

As to AVLPRDMVF, the equilibrium dissociation constant (Kd) with HLA-A*24:03 (setting [16]) was determined as 0.11 µM.

In the case of EEEQTLTIL, the values for the equilibrium dissociation constant (Kd) with HLA-B*18:01 (setting [17]) and in the experiment with HLA-B*44:02 (setting [17]) were 4.02 µM and no less than 20 µM, respectively.

As to KYDDRIQSQ, the dissociation constant Kd with HLA-A*31:01 [2] (setting [18]), in the experiment with HLA-B*40:01 [3] (setting [18]), with HLA-B*08:01 (setting [18]), with HLA-A*11:01 [4] (setting [18]), with HLA-A*03:01 [5] (setting [18]) and in the experiment with HLA-B*07:02 [6] (setting [18]) was no less than 20 µM throughout. Moreover, the Kd with HLA-B*27:05 (setting [18]), with HLA-A*26:01 [7] (setting [18]), in the experiment with HLA-B*58:01 (setting [18]), with HLA-B*15:01 [8] (setting [18]), in the experiment with HLA-A*24:03 (setting [18]) and with HLA-A*69:01 (setting [18]) was no less than 20 µM throughout. In addition, in the experiment with HLA-A*02:01 (setting [18]), the Kd was no less than 20 µM.

Consider EESRTIRVL, for which the equilibrium dissociation constant (Kd) worked out at 0.249 µM with HLA-B*40:01 [9] (setting [19]) and 0.0302 µM with HLA-B*44:03 (setting [19]).

In the case of MVFVELPSK, in the experiment with HLA-A*03:01 [10] (source organism: Bacillus anthracis str. A0488), the Kd came to 0.101 µM.

LYGLITEQF: the Kd was found to be 0.0002 µM with HLA-A*24:03 (source organism: Mammarenavirus machupoense), 2.07 µM with HLA-A*29:02, 0.00398 µM in the experiment with HLA-A*23:01 and 0.0155 µM in the experiment with HLA-A*24:02.

Regarding RLNPMHQLLR, the Kd with HLA-A*03:01 [10] (source organism: Influenza A virus H3N2) amounted to 0.805 µM.

Take LEESHPGIF: the equilibrium dissociation constant (Kd) with HLA-B*40:01 [3] (setting [20]) is 0.0853 µM; with HLA-B*44:02 (setting [20]), no less than 20 µM.

Take FIFGKMGAG: the Kd with HLA-A*31:01 [2] (setting [21]), with HLA-B*40:01 [3] (setting [21]), with HLA-B*08:01 (setting [21]), in the experiment with HLA-A*11:01 [4] (setting [21]), in the experiment with HLA-A*03:01 [5] (setting [21]) and in the experiment with HLA-B*07:02 [6] (setting [21]) was no less than 20 µM each time. For the same sequence, the Kd with HLA-B*27:05 (setting [21]) was no less than 20 µM; with HLA-A*26:01 [7] (setting [21]) it was 5.37 µM; in the experiment with HLA-A*01:01 (setting [21]), no less than 20 µM; with HLA-B*58:01 (setting [21]), no less than 20 µM; with HLA-B*15:01 [8] (setting [21]), no less than 20 µM; with HLA-B*44:02 (setting [21]), no less than 20 µM. Also, the Kd in the experiment with HLA-A*69:01 (setting [21]) and with HLA-A*02:01 (setting [21]) was no less than 20 µM throughout.

On to AMSTWSFYH, for which the dissociation constant Kd with HLA-A*03:01 [10] (source organism: Yersinia pestis Nepal516) was determined as 0.0133 µM.

As for VEEDIRWKF, in the experiment with HLA-B*18:01 (source organism: Bacillus cereus), the Kd amounted to 0.0192 µM.

Take QYDDLHKKF: the dissociation constant (Kd) with HLA-B*40:01 [3] (setting [22]), with HLA-B*08:01 (setting [22]), with HLA-A*11:01 [4] (setting [22]), with HLA-A*03:01 [5] (setting [22]), with HLA-B*07:02 [6] (setting [22]) and in the experiment with HLA-B*27:05 (setting [22]) was no less than 20 µM throughout. Moreover, the dissociation constant (Kd) with HLA-A*26:01 [7] (setting [22]) was no less than 20 µM; with HLA-A*01:01 (setting [22]), no less than 20 µM; in the experiment with HLA-B*58:01 (setting [22]) it was no less than 20 µM; with HLA-A*24:03 (setting [22]), 0.0626 µM; with HLA-B*44:02 (setting [22]), no less than 20 µM; with HLA-A*69:01 (setting [22]), no less than 20 µM. Also, the Kd in the experiment with HLA-A*02:01 (setting [22]) is no less than 20 µM.

As to NSIPAVIGY, the dissociation constant (Kd) in the experiment with HLA-A*26:01 [1] (source organism: Kurkino virus) is 0.42 µM.

Consider ADTGCAVSW, for which, in the experiment with HLA-B*44:03 (source organism: Dengue virus 4 Philippines/H241/1956), the dissociation constant (Kd) was 0.224 µM.

For NERWFREVI, the Kd with HLA-B*40:01 [3] (setting [23]) was 0.653 µM; in the experiment with HLA-B*18:01 (setting [23]) it was 0.0052 µM.

On to LEFFLIVLLI, for which the dissociation constant Kd with HLA-B*40:01 [9] (setting [24]) amounted to 0.65 µM; with HLA-B*44:03 (setting [24]), 2.48 µM.

For RMKWMMAMRY, the Kd in the experiment with HLA-A*03:01 [10] (source organism: Influenza A virus (A/chicken/Fujian/25/00(H9N2))) was determined as 0.131 µM.

In the case of FSFGDYFKK, in the experiment with HLA-A*03:01 [10] (source organism: Fusobacterium vincentii ATCC 49256), the dissociation constant (Kd) worked out at 0.0395 µM.

In the case of KLFFQVIAK, the Kd with HLA-A*03:01 [10] (source organism: Yersinia pestis Antiqua) was found to be 0.0065 µM.

Turning to QQVPFCSHHF, the Kd came to 0.272 µM with HLA-B*44:03 (setting [25]) and 0.0139 µM in the experiment with HLA-B*15:01 [11].

For MEHKYSWKS, the Kd in the experiment with HLA-B*44:03 (setting [25]) was found to be 1 µM.

As for HVDGKILFV, the Kd with HLA-A*68:01 is no less than 77.7 µM; in the experiment with HLA-A*31:01 [12], no less than 40.5 µM; with HLA-B*54:01, no less than 78.1 µM; in the experiment with HLA-B*51:01, no less than 68.5 µM; with HLA-B*35:01 it was no less than 77.4 µM; with HLA-A*11:01 [13], no less than 72.3 µM. The dissociation constant (Kd) is 3.14 µM with HLA-A*03:01 [14], no less than 77.5 µM with HLA-B*07:02 [15], no less than 77.7 µM with HLA-A*33:01 and 11.5 µM with HLA-B*53:01.

On to SVYGLMGFH, for which the dissociation constant (Kd) in the experiment with HLA-A*03:01 [10] (source organism: Canarypox virus) was found to be 0.0292 µM.
